Laboratory results reported in article PMC11959585.

Key:
[1] = biological target: PEX14 16-80 (Homo sapiens) (UniProt O75381); assay: ITC; details: cited from earlier work
[2] = biological target: PEX14 16-80 (Homo sapiens) (UniProt O75381); assay: SPR; details: cited from earlier work
[3] = biological target: His-tagged transcriptional activation domain of the tumor suppressor protein p53 (UniProt P04637); assay: solution-phase LSPR peak shift of nanoparticles (UV–vis); hTAD ([…]) immobilised by its His-tag on NTA-Ni AgDNP@Au nanobiosensors (~0.025 nM), NCBD (0.27 μM) or BSA ([…]) added; 10 mM Tris, 150 mM NaCl, 0.025 wt % Tween 20, pH 7.5; near equilibrium (25 min)
Sequence of His-tagged transcriptional activation domain of the tumor suppressor protein p53 (P04637 whole entry, the tested form may be a part): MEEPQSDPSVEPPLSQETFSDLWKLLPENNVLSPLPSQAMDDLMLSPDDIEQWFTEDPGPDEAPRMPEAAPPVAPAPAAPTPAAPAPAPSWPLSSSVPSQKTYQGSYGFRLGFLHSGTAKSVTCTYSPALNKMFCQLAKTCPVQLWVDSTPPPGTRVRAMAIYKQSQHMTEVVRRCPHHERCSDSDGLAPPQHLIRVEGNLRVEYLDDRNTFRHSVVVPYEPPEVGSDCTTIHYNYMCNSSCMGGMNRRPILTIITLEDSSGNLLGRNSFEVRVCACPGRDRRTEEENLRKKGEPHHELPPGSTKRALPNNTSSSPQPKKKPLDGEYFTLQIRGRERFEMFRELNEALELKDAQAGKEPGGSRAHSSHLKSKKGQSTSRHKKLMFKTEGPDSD

[4] = biological target: His-tagged transcriptional activation domain of the tumor suppressor protein p53 (UniProt P04637); assay: solution-phase LSPR peak shift of nanoparticles (UV–vis); hTAD ([…]) immobilised by its His-tag on NTA-Ni AgDNP@Au nanobiosensors (~0.025 nM), NCBD (0.27 μM) added; 10 mM Tris, 10 mM NaCl, 0.025 wt % Tween 20, pH 7.5; nanoparticles aggregated after several minutes
[5] = biological target: His-tagged transcriptional activation domain of the tumor suppressor protein p53 (UniProt P04637); assay: solution-phase LSPR peak shift of nanoparticles (UV–vis); hTAD ([…]) immobilised by its His-tag on NTA-Ni AgDNP@Au nanobiosensors (~0.025 nM), NCBD (0.27 μM) added; 10 mM Tris, 30 mM NaCl, 0.025 wt % Tween 20, pH 7.5; near equilibrium (25 min)

Sequence of PEX14 16-80 (Homo sapiens) (O75381 16-80): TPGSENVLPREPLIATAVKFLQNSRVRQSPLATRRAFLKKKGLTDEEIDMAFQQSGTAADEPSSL

Substance	Kd [1] [nM]	Kd [2] [nM]	second LSPR peak redshift (150 mM NaCl) [3] [nm]	LSPR peak redshift after addition of NCBD (10 mM NaCl) [4] [nm]	second LSPR peak redshift (30 mM NaCl) [5] [nm]
PEX5 1-113 (from UniProt P50542)	157	87			
nuclear receptor coactivator binding domain of the CREB-binding protein (from UniProt Q92793 1-2442) (domain or fragment)			1	6.2	3.2
PEX5 W4 motif W4 (from UniProt P50542)	6300				
